Numbering of substitutions follows the chain as printed.
B1: A67 (antibody, human IgG4, kappa, V domains shown)
VH: QVQLVQSGGGVVQPGRSLRLPCAASGFTFSNYAMHWVRQAPGKGLEWVAVISYDGSKKYYADSVKGRFTISRDNSKNTLYLQVNSLRAEDTAVYYCATGYSSPWYGMDVWGQGTTVTVSS
VL: NIQMTQSPSSLSASVGDRITITCRASQSVNSYVNWYQQTPGQAPKLLIYAASSVHNGVPVRFSGSRSGTEFILTISSLQPEDFVTYFCQQSFTSPWTFGQGTKLEMKR
notes: also called P59376
B2: A378 (antibody, human IgG4, kappa, V domains shown)
VH: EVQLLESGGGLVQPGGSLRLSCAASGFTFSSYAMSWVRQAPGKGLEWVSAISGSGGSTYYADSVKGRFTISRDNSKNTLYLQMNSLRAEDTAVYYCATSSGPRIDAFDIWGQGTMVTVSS
VL: NIQMTQSPSSLTASVGDRITITCRASQGIRNSLAWYQQKPGTAPKLLVSAASKLQTGVPSRFSGSGSGTDYTLTISSLQTEDFATYYCQQYYGTPPTFGQGTKLEIKR
notes: also called P59380
B3: A382 (antibody, human IgG4, kappa, V domains shown)
VH: QVQLVQSGAEVKKPGASVKVSCKASGYTFTSYAMHWVRQAPGQRLEWMGWINAGNGNTKYSQKFQGRVTITRDTSASTAYMELSSLRSEDTAVYYCATSKSVWNFDYWGQGTLVTVSS
VL: EIVLTQSPATLSLSPGERATLSCRASQGISSYLAWYQQKPGQAPRLLIYDASNRATGIPARFSGSGSGTDFTLTISNLEPEDFAVYYCQQRKNWPLTFGGGSKVEIKR
notes: also called P59381
B4: B16 (antibody, human IgG4, kappa, V domains shown)
VH: QVQLVQSGGGLVQPGGSLRLSCAASGFTFSSYAMSWVRQAPGKGLEWVSAISGSGGSTYYADSVKGRFTISRDNPKNTLFLQMTSLRSEDTAMYYCARSYGNYFTYWGQGTLVTVSS
VL: EIVLTQSPATLSLSPGERATLSCRASQSVSSYLAWYQQKPGQAPRLLIYDASNRATGIPARFSGSGSGTDFTLTISSLEPEDFAVYYCQQRSNWPPELTFGGGTKVEIKR
notes: also called P59382
B5: B20 (antibody, human IgG4, kappa, V domains shown)
VH: QVQLLESGPGLVKPSETLSLTCTVSGDSISNYFWSWIRQSPGKGLEWIGYIHYSGTVSYNPSLRSRVTISIDTSKNQFSLKLSSVTAADTAVYYCARRGRIAAAGTGYYYYGMDVWGQGTTVTVSS
VL: EIVMTQSPATLSLSPGERATLSCRASQSVSNYLAWYQQKPGQAPRLLIYGASSRATGIPDRFSGSGSGTDFTLTISRLEPEDFAVYYCQQYGSSLWTFGQGTKVEIKR
notes: also called P59383
B6: B24 (antibody, human IgG4, kappa, V domains shown)
VH: EVQLVETGGGLVKPGGSLRLSCAASGFTFSSYSMNWVRQAPGKGLEWVSSISSSSSYIYYADSVKGRFTISRDNAKNSLYLQMNSLRAEDTAVYYCARGRRRDFDYWGQGTLVTVSS
VL: DIQMTQSPSSLPASVGDRVTITCRASQGIGTFLAWYQQHLGKAPKLLISASSTVQRGVPSRFSGSGSGTEFTLTINSLQPEDFATYYCQQLNNYPRTFGQGTKVEIKR
notes: also called P59384
B7: B29 (antibody, human IgG4, kappa, V domains shown)
VH: QVQLVQSGAEVKKPGSSVKVSCKASGDTFSSFAISWVRQAPGQGLEWMGTIIPLFTTPNYAQKFQGRVTITADESTRTAYMELSSLRSEDTAVYYCARGPERIAAAGYYYYYGMDVWGQGTTVTVSS
VL: EIVMTQSPGTLSLSPGQRATLSCRASQSVSSSSLAWYQQKPGQAPRLLIHGASSRATGIPDRFSGSGSGTDFTLTISRLEPEDFAVYYCQQYGTSWTFGQGTKVEIKR
notes: also called P59385
B8: B53 (antibody, human IgG4, kappa, V domains shown)
VH: EVQLVETGGGVVQPGRSLRLSCAASGFTFSSYAMHWVRQAPGKGLEWVAVISYDGSNKYYADSVKGRFTISRDNSKNTLYLQMNSLRAEDTAVYYCARNRYGATDYWGQGTLVTVSS
VL: NIQLTQSPSSLSASVGDRVTITCRASQGINSWLAWYQQKPGKAPKLLIYAASTLQSGVPSRFSGSGSGTDFTLTINSLQPEDFATYYCQQLNSFPFTFGPGTKVHIKR
notes: also called P59387
B9: B67 (antibody, human IgG4, kappa, V domains shown)
VH: QITLKESGPGLVKPSGTLSLTCAVSGGSISSSNWWSWVRQPPGKGLEWIGEIYHSGSTNYNPSLKSRVTISVDKSKNQFSLKLSSVTAADTAVYYCARDDGWRYGSVYYYYMDVWGKGTTVTVSS
VL: DIQLTQSPSSLSASVGDRVTITCRASQSIDDHLNWYQQKPGKVPKLLISSASTLQSGAPSRFSGSGYGTDFTLTISSLQVEDFATYYCQQSYSPPQTFGQGTKVEIKR
notes: also called P59388
B10: B83 (antibody, V domains shown)
VH: EVQLLESGGGLVQPGGSLRLSCAASGFTFSSYAMSWVRQAPGKGLEWVSAISGSGGRTYYADSVKGRFTISRDNSKNTLYLQMNSLRAEDTAVYYCARVLQYSGTDDLDVWGRGTLVTVSS
VL: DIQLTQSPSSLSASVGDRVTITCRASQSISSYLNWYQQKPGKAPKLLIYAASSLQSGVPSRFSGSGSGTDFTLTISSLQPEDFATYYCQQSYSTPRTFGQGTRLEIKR
notes: also called P59389
B11: B109 (antibody, human IgG4, kappa, V domains shown)
VH: EVQLLESGGGLVKPGGSLRLSCAASGFTFSSYSMNWVRQAPGKGLEWVSSISSSSSYIYYADSVKGRFTISRDNAKNSLYLQMNSLRDGDTAIYYCVRRLWEAPGIGPFDVWGHGTMVTVSS
VL: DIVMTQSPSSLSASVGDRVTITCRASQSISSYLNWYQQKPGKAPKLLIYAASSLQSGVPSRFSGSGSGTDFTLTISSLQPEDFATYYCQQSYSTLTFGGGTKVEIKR
notes: also called P59392
B12: B114 (antibody, human IgG4, kappa, V domains shown)
VH: EVQLLESGGGLVQPGGSLKLSCAASGFTFSGYAMHWVRQAPGKGLEWVAVISYDGSNKYYADSVKGRFTISRDNSKNTLYLQMNSLRAEDTAVYYCARGRGRGVFDYWGQGTLVTVSS
VL: B3 VL with A9G, G28S, I29V, S31K, A51V, N77S, K92R, N93S, S102T, K107R
notes: also called P59393
B13: B117 (antibody, human IgG4, kappa, V domains shown)
VH: EVQLLESGGGLVQPGGSLRLSCAASGFTFSSYSMNWVRQAPGKGLEWVSYISSSSSTIYYADSVKGRFTISRDNAKNSLYLQMNSLRDEDTAVYYCARDRTLGYWGQGTLVTVSS
VL: B8 VL with L11V, T22S, N30G, S31R, T53N, N76S, L91A, F96R, H105D
notes: also called P59394
B14: B123 (antibody, human IgG4, kappa, V domains shown)
VH: QVQLQQWGAGLLKPSQTLSLTCTVSGGSISSGGYYWSWIRQHPGKGLEWIGYIYYSGSTYYNPSLKSRVTISVDTSKNQFSLKLSSVTAADTAVYYCARWDRVREGGRFSNAFDIWGQGTMVTVSS
VL: NIQLTQSPSSLSASVGDRVTITCRASQGISTYLAWYQQKPGLAPKLLIYGASTLQSGVPSKFSGFGSGRDFTLTISSLQPEDIATYYCQQLNTYPPTFGQGTKLEIKR
notes: also called P59395
B15: B201 (antibody, human IgG4, kappa, V domains shown)
VH: EVQLVESGGGLVQPGGSLRLSCAASGFTFSSYAMHWVRQAPGKGLEWVSAISGSGDSTYYADSVKGRFSISRDNSKNTLYLQMNSLRAEDTAVYYCAKGSRRSGFNLFDYWGQGTLVTVSS
VL: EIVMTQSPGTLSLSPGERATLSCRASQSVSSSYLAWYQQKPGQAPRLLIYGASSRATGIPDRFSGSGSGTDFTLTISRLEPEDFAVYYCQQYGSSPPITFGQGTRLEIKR
notes: also called P59398
B16: A8 (antibody, human IgG4, kappa, V domains shown)
VH: QVQLVQSGAEVKKPGSSVKVSCKASGGTFSSYAISWVRQAPGQGLEWMGGIIPIFGTANYAQKFQGRVTMTRDTSTSTVYMELSSLRSEDTAVYYCARDSDFWSGYSSMDVWGQGTTVTVSS
VL: DIVMTQSPLSLPVTLGQPASISCRSSQSLVHSDGNTYLNWFQQRPGQSPRRLIYKVSNRDSGVPDRFSGSGSGTDFTLKISRVEAEDVGVYYCMQGTQWPDTFGQGTKLEIKR
notes: also called P59367
B17: B307 (antibody, human IgG4, kappa, V domains shown)
VH: QLQLQESGPGLVKPSQTLSLTCTVSGGSISSGGYYWSWIRQHPGKGLEWIGYIYYSGSTYYNPSLKSRVTISVDTSKNQFSLKLSSVTAADTAVYYCARMGRIAASNYYGMDVWGQGTTVTVSS
VL: DIQLTQSPSFLSASVGDRVTITCRASQGISSQLAWYQQEPGKAPKLLIYAASTLQSGVPSRFSGSGSGTEFTLTISSLQPEDFATYYCQQVNAYPLTFGPGTKVDIKR
notes: also called P59399

Target: T1, CC1H, major antigenic region of PLA2R (human, UniProt Q13018 21-367)
T1 construct: Secreted from CHO-S cells, purified on Ni column; also called CCIh
Assay: indirect ELISA, CC1h coated at 2 ug/mL, anti-human IgG Fc HRP
Method: 30 μL of CC1h (2 μg/mL, diluted with 1*PBS) was added to the reaction wells of the ELISA plate, and the plate was sealed and incubated at 4° C. overnight. The plate was washed with PBST for 3 times, and the liquid in the wells was discarded. 5% PBSM was added to block the ELISA plate at room temperature for 2 hours. The plate was washed with PBST for 3 times by adding 30 μL of Abs (diluted with 1*PBS) to each well of the ELISA plate, and the plate was incubated at room temperature for 60 min. The plate was washed with PBST for 3 times, 30 μL of anti-human IgG Fc HRP (diluted with 1% PBSM at a ratio of 1:8000) was added to each well, and incubated at room temperature for 60 min. TMB was added and the reaction was stopped with 2M blocking solution and the OD value was detected at 450 nm. Recombinant Ipilimumab (Sanyou Biopharmaceuticals Co., Ltd.) was used as a negative control. The test results were illustrated in Table 2 as well as FIG. 4 and FIG. 5.

Binder | EC50 [ng/mL]
B1 | 6.41
B2 | 14.1
B3 | 13.2
B4 | 6.67
B5 | 5.36
B6 | 7.03
B7 | 3.85
B8 | 7.67
B9 | 5.02
B10 | 7.71
B11 | 6.38
B12 | 6.52
B13 | 7.17
B14 | 8.09
B15 | 8.88
B16 | 4.81
B17 | 5.74
